Source: article PMC9426481, “Structure and Function of BcpE2, the Most Promiscuous GH3-Family Glucose Scavenging Beta-Glucosidase” (mBio, 2022)

Tests used:
[1] = target: T1, BcpE2 (Streptomyces scabiei, UniProt C9ZDY4); test: TLC hydrolysis assay with purified enzyme (complete hydrolysis); assay type: biochemical
T1 construct: gene SCAB_64101; BcpE2-His6

[2] = target: T2, BglC (His6-BglC) (Streptomyces scabiei, UniProt C9Z448); test: glucose release; substrate inhibition fit; assay type: biochemical; conditions: Ki of substrate inhibition
T2 construct: gene SCAB_57721; N-terminal His6 tag kept; plasmid pSAJ022; host E. coli BL21(DE3) Rosetta
T2 sequence (C9Z448 entry or part of it): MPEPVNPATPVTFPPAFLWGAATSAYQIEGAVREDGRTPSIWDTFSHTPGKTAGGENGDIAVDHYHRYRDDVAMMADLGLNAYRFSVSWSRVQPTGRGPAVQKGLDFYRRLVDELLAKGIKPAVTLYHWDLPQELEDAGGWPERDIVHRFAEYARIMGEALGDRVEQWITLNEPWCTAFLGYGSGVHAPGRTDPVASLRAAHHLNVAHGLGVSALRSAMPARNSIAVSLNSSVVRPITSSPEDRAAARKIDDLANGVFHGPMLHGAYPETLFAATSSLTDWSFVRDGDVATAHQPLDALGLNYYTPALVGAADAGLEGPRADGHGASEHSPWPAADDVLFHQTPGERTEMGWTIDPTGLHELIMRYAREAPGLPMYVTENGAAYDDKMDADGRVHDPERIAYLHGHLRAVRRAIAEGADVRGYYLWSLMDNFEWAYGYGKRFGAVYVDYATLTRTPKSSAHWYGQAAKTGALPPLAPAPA

[3] = substrate: OC/C=C/c1ccc(O[C@@H]2O[C@H](CO)[C@@H](O)[C@H](O)[C@H]2O)cc1; test: purified protein; assay type: biochemical, Streptomyces scabiei
[4] = substrate: COc1cc2ccc(=O)oc2cc1O[C@@H]1O[C@H](CO)[C@@H](O)[C@H](O)[C@H]1O; test: purified protein; assay type: biochemical, Streptomyces scabiei
[5] = substrate: OCc1ccccc1O[C@@H]1O[C@H](CO)[C@@H](O)[C@H](O)[C@H]1O; test: Hydrolysis kinetics (glucose release, Km) and TLC with purified enzyme; assay type: biochemical, Streptomyces scabiei
[6] = substrate: OC[C@H]1O[C@@H](Oc2ccc(O)cc2)[C@H](O)[C@@H](O)[C@@H]1O; test: as above; assay type: biochemical, Streptomyces scabiei
[7] = substrate: COc1cc(/C=C/CO)ccc1O[C@@H]1O[C@H](CO)[C@@H](O)[C@H](O)[C@H]1O; test: as above; assay type: biochemical, Streptomyces scabiei
[8] = substrate: OC[C@H]1O[C@@H](O[C@H]2[C@H](O)[C@@H](CO)OC(O)[C@@H]2O)[C@H](O)[C@@H](O)[C@@H]1O; test: as above; assay type: biochemical, Streptomyces scabiei
[9] = substrate: COc1cc(/C=C/CO)cc(OC)c1O[C@@H]1O[C@H](CO)[C@@H](O)[C@H](O)[C@H]1O; test: as above; assay type: biochemical, Streptomyces scabiei

Molecule: CC(C)(C#N)O[C@@H]1O[C@H](CO)[C@@H](O)[C@H](O)[C@H]1O [Linamarin]
- TLC hydrolysis assay with purified enzyme (complete hydrolysis) [1]: Linamarin|Cyanogenic glycosides|+|−|NT|NT|NT|NT

Molecule: COc1cc2ccc(=O)oc2cc1O[C@@H]1O[C@H](CO)[C@@H](O)[C@H](O)[C@H]1O [Scopolin]
- Ki [2]: the Ki value for BcpE2 appeared to be lower, indicating a stronger inhibition compared to BglC

Molecule: OC[C@H]1O[C@@H](Oc2cc3c(O[C@@H]4O[C@H](CO)[C@@H](O)[C@H](O)[C@H]4O)cc(O)cc3[o+]c2-c2ccc(O)c(O)c2)[C@H](O)[C@@H](O)[C@@H]1O [Cyanin]
- TLC hydrolysis assay with purified enzyme (complete hydrolysis) [1]: Cyanin (Cyanidin-3,5-di-O-glucoside)|Antho-cyanosides|+|−|NT|NT|NT|NT

B1: BcpE2 (Streptomyces scabiei 87.22) (protein)
chain: MAATPGTRTTPADEAREAAVEKALAALDLDAKARLLSGQDMWTLPALPEIGLASLVMSDGPIGVRGVRWTADDPSVALPSPTALAATWDPGLARRAGVLLAQEARRKGVHVLLAPTVNLHRSPLGGRHFEAYSEDPYLTGEIGSGYVTGVQAGGVGTTVKHFVANDAETDRFTVNNLVSARALRELYLAPFEAIVANAHPWGIMTAYNQVNGSTMTEHRYLVNEVLRGEWGFDGFNVSDWLAARSTTGALTGGLDVAMPGPATVYGEPLAAAVRAGEVTESLLDEAVRRVLRLAARVGILEGAAPAVTELPAPVDGEALAREIARRSFVLVRNEVRDGRAALPLEQGATVALIGAAARDARVLGGGSATVFPARVVSPLDGLTAALPEGAPTYALGADPNEELAVADTGFTLRAVCRDASGTVIGTRSAPNGHIQWMGSDLPDGVTHATLHSVELTGTFTPRETGTHTFGVKGLGAYTLTVDGTTHFDGVRTTDTDDPFVSFFGAPVPLAEVELTEGTPLEVSLTHVVELAADAPITMLAFSLCHQEPQRDPDELIAEAVEAARAADTAVVVVATTERVESEGFDRKDLRLPGRQDDLVRAVAAANPATVVVVNAGSPVELPWREDVAAVLLTWFPGQEGGAALAEVLTGAHEPGGRLPTTWGSLTGAPVTQVTPTAGELVYDEGVFIGYRAWDKEDRTPTYPFGHGLGYTDWTYESLDVTGTTATVRVRNTGTREGRETVQLYLAPTTADENRPTRWLAGFATVEAAPGETAEAVVRLPRRAFEIWDETTGAWVYVTGSYEVAAGRSIADRRTRVTIEAP
notes: BcpE2-His6
- Km [3]: 0.236 mM
- kcat [3]: 77.2 s⁻¹
- kcat/Km [3]: 326000 M⁻¹ s⁻¹
- Km [4]: 0.356 mM
- kcat [4]: 192 s⁻¹
- kcat/Km [4]: 540000 M⁻¹ s⁻¹
- Km [5]: 0.142 ± 0.030 mM
- kcat [5]: 53.2 ± 2.37 s⁻¹
- kcat/Km [5]: 376000 M⁻¹ s⁻¹
- Km [6]: 0.367 ± 0.080 mM
- kcat [6]: 43.2 ± 2.5 s⁻¹
- kcat/Km [6]: 117000 M⁻¹ s⁻¹
- Km [7]: 0.151 ± 0.043 mM
- kcat [7]: 83.3 ± 5.9 s⁻¹
- kcat/Km [7]: 551000 M⁻¹ s⁻¹
- Km [8]: 6.557 ± 1.410 mM
- kcat [8]: 8.74 ± 1.02 s⁻¹
- kcat/Km [8]: 1330 M⁻¹ s⁻¹
- Km [9]: 0.608 ± 0.166 mM
- kcat [9]: 26.4 ± 3.07 s⁻¹
- kcat/Km [9]: 43500 M⁻¹ s⁻¹
